B1: FLOT1 (parent)
chain: QMAKKAEAFQLYQEAAQLDMLLEK

Variants of: B1
Assay: protein stability index of a GFP-peptide fusion (GPS, HEK-293T) (PSI 1-6); higher = more stable
Conditions: c terminus: a fixed tail appended
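Note: lentivirally expressed fusions sorted by FACS into six bins by GFP to DsRed ratio, PSI derived from sequencing read proportions per bin multiplied by bin number.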

First: L21G
Second: L21W
The protein stability index of the first is higher: 4.02 for the first, 1.69 for the second.

Compared with L21T, L21V is lower in protein stability index: 2.97 for the first, 2.35 for the second.

Compared with L21Q, L21F is higher in protein stability index: 1.75 for the first, 2.35 for the second.

Going from L21D to L21Y, the protein stability index falls from 2.58 to 2.04.

Compared with L21N, L21K is lower in protein stability index: 3.38 for the first, 2.19 for the second.

Compared with L21S, L21A is lower in protein stability index: 3.46 for the first, 2.09 for the second.

Going from L21M to L21H, the protein stability index rises from 1.84 to 3.47.

Compared with L21C, L21E is lower in protein stability index: 2.9 for the first, 2.7 for the second.

First: L21R
Second: L21I
The protein stability index of the first is higher: 3.19 for the first, 2 for the second.

First: L21P
Second: Q17I
The protein stability index of the first is higher: 4.51 for the first, 1.72 for the second.

First: Q17D
Second: Q17W
The protein stability index of the first is lower: 3.81 for the first, 4.61 for the second.

Compared with Q17P, Q17K is lower in protein stability index: 3.95 for the first, 1.65 for the second.

First: Q17C
Second: Q17L
The protein stability index of the first is higher: 1.71 for the first, 1.58 for the second.

Compared with Q17M, Q17R is higher in protein stability index: 1.02 for the first, 2.46 for the second.

First: Q17A
Second: Q17F
The protein stability index of the first is lower: 1.47 for the first, 2.6 for the second.

Going from Q17S to Q17T, the protein stability index falls from 1.88 to 1.19.

Compared with Q17E, Q17V is lower in protein stability index: 1.89 for the first, 1.14 for the second.

Compared with E14Q, E14P is higher in protein stability index: 1.36 for the first, 3.12 for the second.

Compared with E14Y, E14S is lower in protein stability index: 2.71 for the first, 2.03 for the second.

E14L and E14T are the same in protein stability index: 1.97 for the first, 1.97 for the second.

Compared with E14R, E14N is higher in protein stability index: 2.21 for the first, 2.5 for the second.

Going from E14W to M20G, the protein stability index rises from 1.96 to 3.94.

Compared with M20H, M20D is higher in protein stability index: 2.94 for the first, 4.03 for the second.

Compared with M20C, M20V is higher in protein stability index: 1.97 for the first, 2.38 for the second.

Going from M20T to M20A, the protein stability index falls from 3.22 to 2.75.

First: M20S
Second: M20Q
The protein stability index of the first is higher: 3.69 for the first, 3.1 for the second.

Compared with M20E, M20P is higher in protein stability index: 3.76 for the first, 4.52 for the second.

First: M20I
Second: M20N
The protein stability index of the first is higher: 3.46 for the first, 2.47 for the second.

First: M20K
Second: M20F
The protein stability index of the first is higher: 2.55 for the first, 2.25 for the second.

Compared with M20Y, M20L is lower in protein stability index: 2.08 for the first, 1.85 for the second.

Going from M20R to L22I, the protein stability index falls from 2.98 to 1.72.

First: L22S
Second: L22N
The protein stability index of the first is higher: 2.63 for the first, 2.03 for the second.

Compared with L22Y, L22R is higher in protein stability index: 1.5 for the first, 2.42 for the second.

Going from L22T to L22K, the protein stability index falls from 3.36 to 3.07.

First: L22C
Second: L22H
The protein stability index of the first is lower: 2.42 for the first, 2.48 for the second.

First: L22F
Second: L22G
The protein stability index of the first is lower: 2.23 for the first, 3.76 for the second.

Compared with L22M, L22A is lower in protein stability index: 2.02 for the first, 1.32 for the second.

Going from L22E to L22D, the protein stability index rises from 1.61 to 2.54.

First: L22Q
Second: L22W
The protein stability index of the first is higher: 2.08 for the first, 1.5 for the second.

Compared with L22V, L22P is higher in protein stability index: 2.33 for the first, 3.9 for the second.

First: A16S
Second: A16D
The protein stability index of the first is higher: 3.68 for the first, 3.24 for the second.

Going from A16V to A16P, the protein stability index rises from 1.1 to 4.27.

First: A16I
Second: A16T
The protein stability index of the first is lower: 1.44 for the first, 1.85 for the second.

Going from A16R to A16Y, the protein stability index falls from 3.45 to 1.93.

Compared with A16H, A16M is lower in protein stability index: 3.3 for the first, 2.79 for the second.

Going from A16E to A16N, the protein stability index falls from 3.98 to 2.45.

Going from A16W to A16Q, the protein stability index rises from 1.35 to 3.31.

First: A16G
Second: A16K
The protein stability index of the first is higher: 4.14 for the first, 3.59 for the second.

Going from A16L to L18A, the protein stability index falls from 2.63 to 1.85.

First: L18V
Second: L18H
The protein stability index of the first is higher: 1.85 for the first, 1.83 for the second.

First: L18W
Second: L18D
The protein stability index of the first is lower: 2.03 for the first, 3.52 for the second.

First: L18I
Second: L18Y
The protein stability index of the first is higher: 2.17 for the first, 1.46 for the second.

Compared with L18T, L18S is lower in protein stability index: 3.56 for the first, 2.51 for the second.

Going from L18K to L18C, the protein stability index rises from 2.9 to 3.66.

Compared with L18M, L18E is higher in protein stability index: 2.22 for the first, 3.61 for the second.

Compared with L18G, L18F is lower in protein stability index: 3.8 for the first, 2.13 for the second.

First: L18P
Second: L18N
The protein stability index of the first is higher: 3.9 for the first, 2.66 for the second.

Going from E23T to E23R, the protein stability index falls from 1.51 to 1.39.

First: E23D
Second: E23A
The protein stability index of the first is higher: 3.79 for the first, 2.29 for the second.

Going from E23Q to E23P, the protein stability index rises from 1.75 to 3.12.

Going from E23K to E23F, the protein stability index falls from 2.11 to 1.72.

Compared with E23S, E23M is lower in protein stability index: 2.53 for the first, 1.28 for the second.

Going from E23H to E23V, the protein stability index falls from 2.15 to 1.98.

Compared with E23I, E23L is higher in protein stability index: 1.62 for the first, 2.21 for the second.

Going from E23G to E23C, the protein stability index falls from 3.26 to 2.27.

Compared with E23N, A15R is higher in protein stability index: 2.35 for the first, 2.92 for the second.

First: A15E
Second: A15P
The protein stability index of the first is lower: 4.04 for the first, 4.27 for the second.

Compared with A15Y, A15V is higher in protein stability index: 2.21 for the first, 2.33 for the second.

Compared with A15M, A15F is higher in protein stability index: 1.24 for the first, 2.24 for the second.

First: A15I
Second: A15K
The protein stability index of the first is higher: 2.1 for the first, 1.56 for the second.

First: A15W
Second: A15N
The protein stability index of the first is higher: 2.68 for the first, 2.32 for the second.

First: A15H
Second: A15S
The protein stability index of the first is lower: 2.2 for the first, 2.49 for the second.

Going from A15D to A15C, the protein stability index falls from 4.62 to 2.65.

Going from A15T to A15Q, the protein stability index falls from 2.76 to 1.44.

Going from D19E to D19L, the protein stability index falls from 1.87 to 1.24.

Going from D19K to D19C, the protein stability index rises from 1.65 to 2.13.

First: D19H
Second: D19G
The protein stability index of the first is higher: 1.8 for the first, 1.48 for the second.

First: D19N
Second: D19S
The protein stability index of the first is higher: 1.91 for the first, 1.29 for the second.

Compared with D19V, D19T is lower in protein stability index: 3.13 for the first, 2.66 for the second.

Going from D19R to D19I, the protein stability index falls from 1.53 to 1.5.

Going from D19Y to D19A, the protein stability index rises from 2.35 to 2.65.

First: D19P
Second: D19F
The protein stability index of the first is higher: 3.95 for the first, 1.69 for the second.

First: D19M
Second: D19Q
The protein stability index of the first is higher: 2.85 for the first, 1.83 for the second.

With D19W the protein stability index was 1.34.

— the supplement of paper PMC10567573
